From the RNAGym collection of RNA variant scans (doi:10.1093/molbev/msab373)

B1: Azoarcus group I ribozyme (parent)
chain: GUGCCUUGCGCCGGGAAACCACGCAAGGGAUGGUGUCAAAUUCGGCGAAACCUAAGCGCCCGCCCGGGCGUAUGGCAACGCCGAGCCAAGCUUCGGCGCCUGCGCCGAUGAAGGUGUAGAGACUAGACGGCACCCACCUAAGGCAAACGCUAUGGUGAAGGCAUAGUCCAGGGAGUGGCGAAAGUCACACAAACCGG

Variants of: B1
Test: reverse-splicing fitness (ratio to wild type); higher = more active; in vitro selection; Mg2+ level not given
Outline: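 An in vitro group I ribozyme library with randomized positions was T7-transcribed and gel-purified. In triplicate, 10 pmol RNA in EPPS pH 7.5 was reacted with 50 pmoles of a 30-nt RNA substrate for 1 h at 37 °C across several added MgCl2 levels (1–48 mM), then stopped with EDTA. Products were reverse transcribed from a substrate-complementary primer, PCR-amplified and sequenced (HiSeq 4000). Fitness is a variant's read proportion after selection over that before, normalised to wild type.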

Variant | reverse-splicing fitness
A111C A120G A145G C150A C169U | 0.0326
A111C A120G A145G C150A C169U U176A | 0.0227
A111C A120G A145G C150A C169U U176C | 0.0241
A111C A120G A145G C150A C169U U176G | 0.00466
A111C A120G A145G C150A U176A | 0.0132
A111C A120G A145G C150A U176C | 0.0252
A111C A120G A145G C150A U176G | 0.0068
A111C A120G A145G C150G | 0.0228
A111C A120G A145G C150G C169A | 0.0166
A111C A120G A145G C150G C169A U176A | 0.0128
A111C A120G A145G C150G C169A U176C | 0.0131
A111C A120G A145G C150G C169A U176G | 0.00703
A111C A120G A145G C150G C169G | 0.0248
A111C A120G A145G C150G C169G U176A | 0.0101
A111C A120G A145G C150G C169G U176C | 0.0114
A111C A120G A145G C150G C169G U176G | 0.00543
A111C A120G A145G C150G C169U | 0.0264
A111C A120G A145G C150G C169U U176A | 0.0115
A111C A120G A145G C150G C169U U176C | 0.0161
A111C A120G A145G C150G C169U U176G | 0.00619
A111C A120G A145G C150G U176A | 0.00942
A111C A120G A145G C150G U176C | 0.0155
A111C A120G A145G C150G U176G | 0.00613
A111C A120G A145G C150U | 0.139

Variant | reverse-splicing fitness
A111C A120G A145G C150U C169A | 0.0989
A111C A120G A145G C150U C169A U176A | 0.0192
A111C A120G A145G C150U C169A U176C | 0.0222
A111C A120G A145G C150U C169A U176G | 0.00548
A111C A120G A145G C150U C169G | 0.167
A111C A120G A145G C150U C169G U176A | 0.0243
A111C A120G A145G C150U C169G U176C | 0.035
A111C A120G A145G C150U C169G U176G | 0.00471
A111C A120G A145G C150U C169U | 0.139
A111C A120G A145G C150U C169U U176A | 0.0338
A111C A120G A145G C150U C169U U176C | 0.0446
A111C A120G A145G C150U C169U U176G | 0.00498
A111C A120G A145G C150U U176A | 0.0273
A111C A120G A145G C150U U176C | 0.04
A111C A120G A145G C150U U176G | 0.00709
A111C A120G A145G C169A | 0.123
A111C A120G A145G C169A U176A | 0.0264
A111C A120G A145G C169A U176C | 0.0401
A111C A120G A145G C169A U176G | 0.00458
A111C A120G A145G C169G | 0.227
A111C A120G A145G C169G U176A | 0.036
A111C A120G A145G C169G U176C | 0.0552
A111C A120G A145G C169G U176G | 0.00512
A111C A120G A145G C169U | 0.167

Variant | reverse-splicing fitness
A111C A120G A145G C169U U176A | 0.0413
A111C A120G A145G C169U U176C | 0.045
A111C A120G A145G C169U U176G | 0.00448
A111C A120G A145G U176A | 0.0379
A111C A120G A145G U176C | 0.0456
A111C A120G A145G U176G | 0.00588
A111C A120G A145U | 0.179
A111C A120G A145U C150A | 0.0185
A111C A120G A145U C150A C169A | 0.0145
A111C A120G A145U C150A C169A U176A | 0.0109
A111C A120G A145U C150A C169A U176C | 0.011
A111C A120G A145U C150A C169A U176G | 0.00497
A111C A120G A145U C150A C169G | 0.0221
A111C A120G A145U C150A C169G U176A | 0.0123
A111C A120G A145U C150A C169G U176C | 0.0176
A111C A120G A145U C150A C169G U176G | 0.00467
A111C A120G A145U C150A C169U | 0.018
A111C A120G A145U C150A C169U U176A | 0.0198
A111C A120G A145U C150A C169U U176C | 0.0173
A111C A120G A145U C150A C169U U176G | 0.0045
A111C A120G A145U C150A U176A | 0.0126
A111C A120G A145U C150A U176C | 0.0176
A111C A120G A145U C150A U176G | 0.0043
A111C A120G A145U C150G | 0.0193

Variant | reverse-splicing fitness
A111C A120G A145U C150G C169A | 0.0153
A111C A120G A145U C150G C169A U176A | 0.0089
A111C A120G A145U C150G C169A U176C | 0.0112
A111C A120G A145U C150G C169A U176G | 0.00487
A111C A120G A145U C150G C169G | 0.0203
A111C A120G A145U C150G C169G U176A | 0.00713
A111C A120G A145U C150G C169G U176C | 0.00574
A111C A120G A145U C150G C169G U176G | 0.00412
A111C A120G A145U C150G C169U | 0.0209
A111C A120G A145U C150G C169U U176A | 0.0111
A111C A120G A145U C150G C169U U176C | 0.0151
A111C A120G A145U C150G C169U U176G | 0.00442
A111C A120G A145U C150G U176A | 0.00983
A111C A120G A145U C150G U176C | 0.0169
A111C A120G A145U C150G U176G | 0.00305
A111C A120G A145U C150U | 0.113
A111C A120G A145U C150U C169A | 0.0731
A111C A120G A145U C150U C169A U176A | 0.0161
A111C A120G A145U C150U C169A U176C | 0.0175
A111C A120G A145U C150U C169A U176G | 0.00499
A111C A120G A145U C150U C169G | 0.133
A111C A120G A145U C150U C169G U176A | 0.0211
A111C A120G A145U C150U C169G U176C | 0.0326
A111C A120G A145U C150U C169G U176G | 0.00542

Variant | reverse-splicing fitness
A111C A120G A145U C150U C169U | 0.106
A111C A120G A145U C150U C169U U176A | 0.034
A111C A120G A145U C150U C169U U176C | 0.0353
A111C A120G A145U C150U C169U U176G | 0.00595
A111C A120G A145U C150U U176A | 0.0265
A111C A120G A145U C150U U176C | 0.0338
A111C A120G A145U C150U U176G | 0.00526
A111C A120G A145U C169A | 0.128
A111C A120G A145U C169A U176A | 0.0166
A111C A120G A145U C169A U176C | 0.0182
A111C A120G A145U C169A U176G | 0.0051
A111C A120G A145U C169G | 0.203
A111C A120G A145U C169G U176A | 0.0277
A111C A120G A145U C169G U176C | 0.0343
A111C A120G A145U C169G U176G | 0.00448
A111C A120G A145U C169U | 0.174
A111C A120G A145U C169U U176A | 0.042
A111C A120G A145U C169U U176C | 0.0424
A111C A120G A145U C169U U176G | 0.00716
A111C A120G A145U U176A | 0.0392
A111C A120G A145U U176C | 0.0406
A111C A120G A145U U176G | 0.00568
A111C A120G C150A | 0.0211
A111C A120G C150A C169A | 0.0171

Variant | reverse-splicing fitness
A111C A120G C150A C169A U176A | 0.0174
A111C A120G C150A C169A U176C | 0.023
A111C A120G C150A C169A U176G | 0.00594
A111C A120G C150A C169G | 0.0242
A111C A120G C150A C169G U176A | 0.0175
A111C A120G C150A C169G U176C | 0.0245
A111C A120G C150A C169G U176G | 0.00531
A111C A120G C150A C169U | 0.0203
A111C A120G C150A C169U U176A | 0.0211
A111C A120G C150A C169U U176C | 0.024
A111C A120G C150A C169U U176G | 0.0056
A111C A120G C150A U176A | 0.0175
A111C A120G C150A U176C | 0.0209
A111C A120G C150A U176G | 0.00592
A111C A120G C150G | 0.0159
A111C A120G C150G C169A | 0.0136
A111C A120G C150G C169A U176A | 0.00971
A111C A120G C150G C169A U176C | 0.0109
A111C A120G C150G C169A U176G | 0.00481
A111C A120G C150G C169G | 0.0183
A111C A120G C150G C169G U176A | 0.0066
A111C A120G C150G C169G U176C | 0.00473
A111C A120G C150G C169G U176G | 0.00457
A111C A120G C150G C169U | 0.0177

Variant | reverse-splicing fitness
A111C A120G C150G C169U U176A | 0.00966
A111C A120G C150G C169U U176C | 0.0154
A111C A120G C150G C169U U176G | 0.00441
A111C A120G C150G U176A | 0.0109
A111C A120G C150G U176C | 0.0173
A111C A120G C150G U176G | 0.00348
A111C A120G C150U | 0.0912
A111C A120G C150U C169A | 0.0604
A111C A120G C150U C169A U176A | 0.0176
A111C A120G C150U C169A U176C | 0.0197
A111C A120G C150U C169A U176G | 0.00513
A111C A120G C150U C169G | 0.112
A111C A120G C150U C169G U176A | 0.0233
A111C A120G C150U C169G U176C | 0.0349
A111C A120G C150U C169G U176G | 0.00581
A111C A120G C150U C169U | 0.0919
A111C A120G C150U C169U U176A | 0.0337
A111C A120G C150U C169U U176C | 0.0371
A111C A120G C150U C169U U176G | 0.00549
A111C A120G C150U U176A | 0.0245
A111C A120G C150U U176C | 0.0344
A111C A120G C150U U176G | 0.00599
A111C A120G C169A | 0.131
